What was measured:
[1] = biological target: T1, SAT C-terminal C10 peptide C-terminal 10 residues (Haemophilus influenzae, UniProt P43886); assay: PLP fluorescence titration
T1 chain: GIDDGMNLNI

[2] = biological target: T2, SAT C-terminal C10 peptide C-terminal 10 residues (Salmonella typhimurium, UniProt P29847); assay: PLP fluorescence titration
T2 chain: HHTFEYGDGI

B1: Cysteine synthase (HiCS) (protein)
chain: MAIYADNSYSIGNTPLVRLKHFGHNGNVVVKIEGRNPSYSVKCRIGANMVWQAEKDGTLTKGKEIVDATSGNTGIALAYVAAARGYKITLTMPETMSLERKRLLCGLGVNLVLTEGAKGMKGAIAKAEEIVASDPSRYVMLKQFENPANPQIHRETTGPEIWKDTDGKVDVVVAGVGTGGSITGISRAIKLDFGKQITSVAVEPVESPVISQTLAGEEVKPGPHKIQGIGAGFIPKNLDLSIIDRVETVDSDTALATARRLMAEEGILAGISSGAAVAAADRLAKLPEFADKLIVVILPSASERYLSTALFEGIEG
[1]
  Kd: 3400 nM

B2: Cysteine synthase (StCS) (protein)
chain: SKIYEDNSLTIGHTPLVRLNRIGNGRILAKVESRNPSFSVKCRIGANMIWDAEKRGVLKPGVELVEPTSGNTGIALAYVAAARGYKLTLTMPETMSIERRKLLKALGANLVLTEGAKGMKGAIQKAEEIVASDPQKYLLLQQFSNPANPEIHEKTTGPEIWEDTDGQVDVFISGVGTGGTLTGVTRYIKGTKGKTDLITVAVEPTDSPVIAQALAGEEIKPGPHKIQGIGAGFIPGNLDLKLIDKVVGITNEEAISTARRLMEEEGILAGISSGAAVAAALKLQEDESFTNKNIVVILPSSGERYLSTALFADLFTEKELQQ
[2]
  Kd: 290 nM
